Results taken from the supplement of paper PMC9170038.

Tested on: MS2 coat protein
Test: apparent KD of MS2 coat protein; higher = weaker reporter binding
Settings: Eterna round: R107
In short: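 Designed RNA switches were made by on-chip transcription from Illumina sequencing clusters and then titrated with SNAP-549-labelled MS2 coat protein. Twofold steps ran from 0.7 or 1.5 nM to 3 µM, each lasting 0.8–1.5 h early and 10–20 min late, in 100 mM Tris-HCl pH 7.5, 80 mM KCl, 4 mM MgCl2, without or with constant ligand. Apparent KD is the per-design median of normalised cluster binding-curve fits.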

[1] = input ligand: theophylline 20 uM
[2] = input ligand: theophylline 2 mM
[3] = input ligand: tryptophan 2.4 mM

CCAUAAGUACCGGUCCUCAGAUCCUCAUGACGAGGACCGGUACGGCCGCCACUCGAAACAUGAGGAUCACCCAUGUAAUAAUAUC [Brourdmod17]
apparent KD of MS2 coat protein (input ligand: arginine 13.2 mM): 25.5 nM
apparent KD of MS2 coat protein [1]: 53.1 nM
apparent KD of MS2 coat protein [2]: 66 nM

CCAUGGUUGACGGCCGCCACUCAUUAGUCUUUGAGGUUGGCACAUGAGGAUCACCCAUGUCUGCAGAGGACCGGGUCUCGCCACA [theeternabot_sameState_MS2_Trp_B_15]
apparent KD of MS2 coat protein (input ligand: arginine 13.2 mM): 39.8 nM
apparent KD of MS2 coat protein [1]: 67.3 nM
apparent KD of MS2 coat protein [2]: 54.4 nM

CCCAGUCAUAACAAAGGAAAUAUACUCGAAGGAGCGUCAUAGUAGGCAGGUAGGUCGCGAGACAUGAGGAUCACCCAUGUAGAGA [swwvmullin]
apparent KD of MS2 coat protein (input ligand: arginine 13.2 mM): 21.5 nM
apparent KD of MS2 coat protein (input ligand: none): 47.5 nM
apparent KD of MS2 coat protein [1]: 72 nM
apparent KD of MS2 coat protein [2]: 75.1 nM
apparent KD of MS2 coat protein [3]: 57.8 nM

CCCAGUUAUAACAAAGGAAUUAUACUCGAAGGAGCGUCAUAGUAGGCAGGUAGGUCGCGAGACAUGAGGAUCACCCAUGUAGAGA [k,lmullin]
apparent KD of MS2 coat protein (input ligand: arginine 13.2 mM): 32.1 nM
apparent KD of MS2 coat protein (input ligand: none): 42.3 nM
apparent KD of MS2 coat protein [1]: 56.3 nM
apparent KD of MS2 coat protein [2]: 49.4 nM
apparent KD of MS2 coat protein [3]: 50 nM

CCGUCACAUGAGGAUCACCCAUGUGCGGAAGGAGCGGACGAUAGUCCAGGUAGGUCGCCGUAUAGCCAAUGACCAGCAGUGUCGG [XARG-A 22]
apparent KD of MS2 coat protein (input ligand: arginine 13.2 mM): 12.4 nM
apparent KD of MS2 coat protein (input ligand: none): 13.9 nM
apparent KD of MS2 coat protein [1]: 16.6 nM
apparent KD of MS2 coat protein [2]: 14.8 nM
apparent KD of MS2 coat protein [3]: 15 nM

CCUAUCCAGUCGGCCGCCACUGAAAACAGUGGGUGAACAUGAGGAUCACCCAUGUAAUAAUAAAACAGGACCGGGACUGUAUAGG [Ex Tryptophan B 22]
apparent KD of MS2 coat protein (input ligand: arginine 13.2 mM): 290 nM
apparent KD of MS2 coat protein (input ligand: none): 452 nM
apparent KD of MS2 coat protein [1]: 458 nM
apparent KD of MS2 coat protein [2]: 882 nM
apparent KD of MS2 coat protein [3]: 369 nM

CCUAUCCAGUCGGCCGCCACUGAAAACAGUGGGUGAACAUGAGGAUCACCCAUGUCGGAAUACCGCAGGACCGGGACUGUAUAGG [Ex Tryptophan B 23]
apparent KD of MS2 coat protein (input ligand: arginine 13.2 mM): 162 nM
apparent KD of MS2 coat protein (input ligand: none): 143 nM
apparent KD of MS2 coat protein [1]: 393 nM
apparent KD of MS2 coat protein [2]: 1220 nM
apparent KD of MS2 coat protein [3]: 574 nM

CCUAUGCAGUCGGCCGCCACUGAUAAAGUUAUCUUUACCUCAGAAACAUGAGGAUCACCCAUGUACAGGACCGGGACUGUAUAGG [Ex Tryptophan B 18]
apparent KD of MS2 coat protein (input ligand: arginine 13.2 mM): 14.8 nM
apparent KD of MS2 coat protein [1]: 14.6 nM
apparent KD of MS2 coat protein [2]: 15.9 nM

CCUCAAUCGUCGGCCGCCACUGAAUCAUGCGGAUACAUGAGGAUCACCCAUGUGGGUGUGGUACGCAGGACCGGGACAAGACCCG [#14 Same State - Tryptophan B]
apparent KD of MS2 coat protein (input ligand: arginine 13.2 mM): 154 nM
apparent KD of MS2 coat protein (input ligand: none): 203 nM
apparent KD of MS2 coat protein [1]: 337 nM
apparent KD of MS2 coat protein [2]: 860 nM
apparent KD of MS2 coat protein [3]: 152 nM

CCUCAGCAAUUGGAUACCAGUACAUCGUAAGACAUGAGGAUCACCCAUGUGGGCUUGACAUACCCUUGGCAGCCAUCCUUGAUCC [theeternabot_sameState_MS2_Theo_B_3]
apparent KD of MS2 coat protein (input ligand: arginine 13.2 mM): 101 nM
apparent KD of MS2 coat protein [3]: 250 nM

CCUGACAUGAGGAUCACCCAUGUGUGAGCACGAGGACCGGUACGGCCGCCACUCGCGUUGCCGGCCGGACUAUCUGGCGAAGUCA [theeternabot_sameState_MS2_Trp_A_10]
apparent KD of MS2 coat protein (input ligand: arginine 13.2 mM): 28.3 nM
apparent KD of MS2 coat protein [1]: 39.6 nM
apparent KD of MS2 coat protein [2]: 41.4 nM

CCUUUGUAGCGAAGGAGCGCGUGACUUAGCUCAUGUAAACAUGAGGAUCACCCAUGUGACACGCAGGUAGGUCGCGCUAUGAAGG [Arg B Ex t3]
apparent KD of MS2 coat protein (input ligand: arginine 13.2 mM): 22.2 nM
apparent KD of MS2 coat protein (input ligand: none): 22.3 nM
apparent KD of MS2 coat protein [1]: 28.7 nM
apparent KD of MS2 coat protein [2]: 23.5 nM
apparent KD of MS2 coat protein [3]: 21.9 nM

CGAUAUAAGACGGCCGCCACUAUUAAGUAUCAAAAUAAACAUGAGGAUCACCCAUGUACAUGGGAUAGGACCGGGUCCAAUAACG [A2]
apparent KD of MS2 coat protein (input ligand: arginine 13.2 mM): 40.7 nM
apparent KD of MS2 coat protein (input ligand: none): 128 nM
apparent KD of MS2 coat protein [1]: 123 nM
apparent KD of MS2 coat protein [2]: 208 nM
apparent KD of MS2 coat protein [3]: 70.2 nM

CGCACAUGAGGAUCACCCAUGUGAGGGCGGCGAGGACCGGUACGGCCGCCACUCGCAAAACAUGAGGAUCACCCAUGUGCCGCCG [SSTA DOUBLE!!! :-D #2]
apparent KD of MS2 coat protein (input ligand: arginine 13.2 mM): 30.1 nM
apparent KD of MS2 coat protein (input ligand: none): 32.9 nM
apparent KD of MS2 coat protein [1]: 92.3 nM
apparent KD of MS2 coat protein [2]: 103 nM
apparent KD of MS2 coat protein [3]: 29.2 nM

CGGCCCUCAGAUGAGGAUCACCCAUCUGAUACCAGCCUGGAAACAGGCCCUUGGCAGCAGAAGGUCAUCAAAGAUGACCAAGCCG [TheoAX 30 #OpenEnded #AlternativeMS2]
apparent KD of MS2 coat protein (input ligand: arginine 13.2 mM): 10 nM
apparent KD of MS2 coat protein (input ligand: none): 11.8 nM
apparent KD of MS2 coat protein [1]: 19.4 nM
apparent KD of MS2 coat protein [2]: 89.1 nM
apparent KD of MS2 coat protein [3]: 12 nM

CGUUAAGAAUCGGCCGCCACUCCAUACGUGUGAAUCGCGGAUCGACAUGAGGAUCACCCAUGUCGGAGGACCGGGAUCCUCUUUC [theeternabot_sameState_MS2_Trp_B_12]
apparent KD of MS2 coat protein (input ligand: arginine 13.2 mM): 28.2 nM
apparent KD of MS2 coat protein [1]: 49.2 nM
apparent KD of MS2 coat protein [2]: 48 nM

CUAAAUAUAUCGGCCGCCACUUACUCAUGAGGUAACAACAUGAGGAUCACCCAUGUUUGAGGAUCAAGGACCGGGAUAUAUUUAG [AstrosSSTryB#16]
apparent KD of MS2 coat protein (input ligand: arginine 13.2 mM): 26.1 nM
apparent KD of MS2 coat protein [1]: 37.2 nM
apparent KD of MS2 coat protein [2]: 28.9 nM

CUACAUGGGCUCGAUACCAGUCAGCUCUCGCGUCUCUCAGACAUGAGGAUCACCCAUGUUGACCCUUGGCAGCGACGAUGUAGGC [theeternabot_exclusion_MS2_Theo_B_46]
apparent KD of MS2 coat protein (input ligand: arginine 13.2 mM): 51.1 nM
apparent KD of MS2 coat protein [1]: 123 nM
apparent KD of MS2 coat protein [3]: 83.9 nM

CUACAUUUGUAGAAACCGGUCAACAUUAUUCGAGGACCGGUACGGCCGCCACUCGUAUCAUUUGAUACAUGAGGAUCACCCAUGU [Tryptophan A 8]
apparent KD of MS2 coat protein (input ligand: arginine 13.2 mM): 21.1 nM
apparent KD of MS2 coat protein [1]: 26.1 nM
apparent KD of MS2 coat protein [2]: 26.6 nM
